Among the data in patent publication US20160244499A1 are Kd values, retold here.

The target of this test is C-terminally biotinylated γc ectodomain (human) (UniProt P31785). The test can be described thus: site 2 affinity of free super-4 for γc; method not stated.

For orientation: Kd means the equilibrium constant for the complex coming apart. A higher Kd goes with weaker binding.

B1: super-4 (IL-4 RGA), free, not bound to IL-4Rα (ligand)
chain: HKCDITLQEIIKTLNSLTEQKTLCTELTVTDIFAASKNTTEKETFCRAATVLRQFYSHHEKDTRCLGATAQQFHRHKQLIRFLKRLDRNLWGLAGLNSCPVKEANQSTLENFLERLRVIMQSKWFKCGAHHHHHH
As for B1, the Kd came to 300 nM.
